The results in this text go back to patent WO2012028683A1 (dated 2012).

This assay has as its target T1, recombinant human SOST (human, UniProt Q9BQB4 24-213, labeled with Cy5 (site not stated)).
T1 construct: Acceptor-labelled partner in the FRET assay; also called sclerostin; Cy5-SOST
T1 sequence (looked up): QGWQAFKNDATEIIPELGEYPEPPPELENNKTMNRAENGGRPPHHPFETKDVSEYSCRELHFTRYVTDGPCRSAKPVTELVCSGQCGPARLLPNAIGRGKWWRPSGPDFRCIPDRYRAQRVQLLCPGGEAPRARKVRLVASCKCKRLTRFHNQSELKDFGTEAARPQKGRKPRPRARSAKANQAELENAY
The assay is described as follows: FRET competition assay (inhibition of SOST binding to LRP6(Fc)), antibody released from the PBS gel.

B1: ANTIBODY 1 (antibody, human IgG2, lambda, V domains shown)
VH: QVQLVESGGGLVQPGGSLRLSCAASGFTFRSHWLSWVRQAPGKGLEWVSNINYDGSSTYYADSVKGRFTISRDNSKNTLYLQMNSLRAEDTAVYYCARDTYLHFDYWGQGTLVTVSS
VL: DIALTQPASVSGSPGQSITISCTGTSSDVGDINDVSWYQQHPGKAPKLMIYDVNNRPSGVSNRFSGSKSGNTASLTISGLQAEDEADYYCQSYAGSYLSEVFGGGTKLTVLG
notes: also called anti-sclerostin antibody; mAb
For the molecule B1, the binding result is reported as “binds”.
